From US20230365675A1 (published 2023)

B1: sdCD33_7 (VHH)
VHH: EVQLVESGGGLVQPGGSLRLSCVASGFTFKDYGMTWVRQAPGKALEWVSDINSAGDGIYYSDSVKGRFTISRDDSKGTLYLQMNSLTPEDTAIYYCAAERQRAGDVKRSLAPITAHIWGQGTQVTVSS
notes: sdAb from a naive llama phage library; also called 420; sdAb420
B2: sdCD33_8 (VHH)
VHH: QVQLVESGGGLVQAGGSLRLSCAASGGAFSTYTMGWFRQAPGKEREFVAAIAWTGTHTYYSDSVKGRFTISRDNDKNTVFLQMNSLKPEDTAVYYCAQASSRYRAVTDSLSENHWGPGTQVTVST
notes: sdAb from a naive llama phage library; also called 424; sdAb424
B3: sdCD33_9 (VHH)
VHH: QVKLEESGGGLVRAGGSLRLSCAASGGTFSTYAMAWFRQAPGKEREFVAAITWGGGSTYYEDSVKGRFTISRDNAKNTGVLQMNNLDVDDTAVYYCYAFGRSRAGDANGDYWGQGTQVTVSS
notes: sdAb from a naive llama phage library; also called 426; sdAb426
B4: Anti-CD33 CAR 7 (other)
chain: MELGLSWVVLAALLQGVQAQVQLVQPGGSLRLFCVASEEFFSIYAMGWYRQAPGKQHEMVARFTRDGKITYADSAKGRFTITRDAKNTLNLQMNGLIPEDTAVYYCNINHYWGQGTQVTVSSAAATTTPAPRPPTPAPTIASQPLSLRPEACRPAAGGAVHTRGLDFACDIYIWAPLAGTCGVLLLSLVITLYCKRGRKKLLYIFKQPFMRPVQTTQEEDGCSCRFPEEEEGGCELRVKFSRSADAPAYQQGQNQLYNELNLGRREEYDVLDKRRGRDPEMGGKPRRKNPQEGLYNELQKDKMAEAYSEIGMKGERRRGKGHDGLYQGLSTATKDTYDALHMQALPPR
B5: Anti-CD33-CAR5 (other)
chain: QVKLEESGGGSVQAGESLRLSCTASGITFRDYDIDWYRQAPGKEREWLATITPSGTTHYPDSVKGRATISRDSAKNTVYLQMNSLKPEDTARYECNTLAYWGSGTQVTVSSAAATTTPAPRPPTPAPTIASQPLSLRPEACRPAAGGAVHTRGLDFACDIYIWAPLAGTCGVLLLSLVITLYCKRGRKKLLYIFKQPFMRPVQTTQEEDGCSCRFPEEEEGGCELRVKFSRSADAPAYQQGQNQLYNELNLGRREEYDVLDKRRGRDPEMGGKPRRKNPQEGLYNELQKDKMAEAYSEIGMKGERRRGKGHDGLYQGLSTATKDTYDALHMQALPPR

Tests used:
[1] = target: Biotinylated CD33 protein (UniProt P20138); assay: Octet competition on biotinylated CD33; competitor 430
[2] = target: Biotinylated CD33 protein (UniProt P20138); assay: Octet competition on biotinylated CD33; competitor 413
[3] = target: T1, CD33 on MOLM-13 cells (human, UniProt P20138 18-364); assay: FACS, MOLM-13 cells expressing CD33 against MOLM-13 CD33 knockout
T1 construct: whole, on cells; also called MOLM-13 cell line expressing CD33; wild-type MOLM-13 cells (CD33+)
From the text: A naïve llama phage library was panned and screened to identify single domain antibodies that specifically recognize CD33. A MOLM-13 cell line expressing CD33 was used as a CD33-positive cell line, and a MOLM-13 cell line harboring a knockout of CD33 was used as a CD-33 negative cell line. A purified anti-human CD33 antibody was used as a positive control. Specific binding activity of identified binders was confirmed by FACS. The heavy chain variable region sequences of the identified binders are included herein.

[4] = target: Biotinylated CD33 protein (UniProt P20138); assay: Octet competition on biotinylated CD33; competitor 348
[5] = target: Biotinylated CD33 protein (UniProt P20138); assay: Octet competition on biotinylated CD33; competitor h195
[6] = target: CD33-GFP fusion protein, wild type (WT), on 293FT cells (UniProt P20138); assay: FACS, WT CD33-GFP on 293FT cells
[7] = target: Biotinylated CD33 protein (UniProt P20138); assay: Octet competition on biotinylated CD33; competitor 429
[8] = target: T2, Mutant CD33-GFP M1 (W22A) on 293FT cells (UniProt P20138 18-364); assay: FACS, mutant CD33-GFP on 293FT cells
T2 construct: whole, on cells; not shown: GFP fused to CD33

[9] = target: T3, Mutant CD33-GFP M2 (H45E) on 293FT cells (UniProt P20138 18-364); assay: FACS, mutant CD33-GFP on 293FT cells
T3 construct: whole, on cells; not shown: GFP fused to CD33

[10] = target: T4, Mutant CD33-GFP M3 (N99A) on 293FT cells (UniProt P20138 18-364); assay: FACS, mutant CD33-GFP on 293FT cells
T4 construct: whole, on cells; not shown: GFP fused to CD33

[11] = target: Mutant CD33-GFP M17 (F21Y) on 293FT cells (UniProt P20138); assay: FACS, mutant CD33-GFP on 293FT cells
[12] = target: Mutant CD33-GFP M10 (Y127A) on 293FT cells (UniProt P20138); assay: FACS, mutant CD33-GFP on 293FT cells
[13] = target: Mutant CD33-GFP M15 (Q171A) on 293FT cells (UniProt P20138); assay: FACS, mutant CD33-GFP on 293FT cells
[14] = target: Mutant CD33-GFP M14 (E170R) on 293FT cells (UniProt P20138); assay: FACS, mutant CD33-GFP on 293FT cells
[15] = target: Mutant CD33-GFP M11 (L78T) on 293FT cells (UniProt P20138); assay: FACS, mutant CD33-GFP on 293FT cells
[16] = target: Mutant CD33-GFP JS25 (V25M) on 293FT cells (UniProt P20138); assay: FACS, mutant CD33-GFP on 293FT cells
[17] = target: Mutant CD33-GFP M4 (R122D) on 293FT cells (UniProt P20138); assay: FACS, mutant CD33-GFP on 293FT cells
[18] = target: Mutant CD33-GFP JS23 (L23N) on 293FT cells (UniProt P20138); assay: FACS, mutant CD33-GFP on 293FT cells
[19] = target: Mutant CD33-GFP JS28 (S28L) on 293FT cells (UniProt P20138); assay: FACS, mutant CD33-GFP on 293FT cells
[20] = target: Mutant CD33-GFP M12 (G88S) on 293FT cells (UniProt P20138); assay: FACS, mutant CD33-GFP on 293FT cells
[21] = target: Mutant CD33-GFP M13 (R91E) on 293FT cells (UniProt P20138); assay: FACS, mutant CD33-GFP on 293FT cells
[22] = target: Mutant CD33-GFP M5 (AEAD), quadruple mutant, on 293FT cells (UniProt P20138); assay: FACS, mutant CD33-GFP on 293FT cells
[23] = target: Mutant CD33-GFP M19 (348ATAI) on 293FT cells (UniProt P20138); assay: FACS, mutant CD33-GFP on 293FT cells
[24] = target: Mutant CD33-GFP M16 (4889AII) on 293FT cells (UniProt P20138); assay: FACS, mutant CD33-GFP on 293FT cells
[25] = target: Mutant CD33-GFP M9 (Y49, 50A) on 293FT cells (UniProt P20138); assay: FACS, mutant CD33-GFP on 293FT cells
[26] = target: Mutant CD33-GFP M18 (353AAL) on 293FT cells (UniProt P20138); assay: FACS, mutant CD33-GFP on 293FT cells
[27] = target: Mutant CD33-GFP N20D on 293FT cells (UniProt P20138); assay: FACS, mutant CD33-GFP on 293FT cells
[28] = target: Mutant CD33-GFP JS24 (Q24E) on 293FT cells (UniProt P20138); assay: FACS, mutant CD33-GFP on 293FT cells
[29] = target: Biotinylated CD33 protein (UniProt P20138); assay: Octet competition on biotinylated CD33; competitor 424
[30] = target: Biotinylated CD33 protein (UniProt P20138); assay: Octet competition on biotinylated CD33; competitor 389
[31] = target: Biotinylated CD33 protein (UniProt P20138); assay: Octet competition on biotinylated CD33; competitor 353
[32] = target: Biotinylated CD33 protein (UniProt P20138); assay: Octet competition on biotinylated CD33; competitor 416
[33] = target: T5, Mutant CD33-GFP M7 (R98D) on 293FT cells (UniProt P20138 18-364); assay: FACS, mutant CD33-GFP on 293FT cells
T5 construct: whole, on cells; not shown: GFP fused to CD33

[34] = target: T6, Mutant CD33-GFP M6 (F43N) on 293FT cells (UniProt P20138 18-364); assay: FACS, mutant CD33-GFP on 293FT cells
T6 construct: whole, on cells; not shown: GFP fused to CD33

[35] = target: T7, Mutant CD33-GFP M8 (K52A) on 293FT cells (UniProt P20138 18-364); assay: FACS, mutant CD33-GFP on 293FT cells
T7 construct: whole, on cells; not shown: GFP fused to CD33

[36] = target: Biotinylated CD33 protein (UniProt P20138); assay: Octet competition on biotinylated CD33; competitor 426
[37] = target: Biotinylated CD33 protein (UniProt P20138); assay: Octet competition on biotinylated CD33; competitor 420
[38] = target: T1, CD33 on MOLM-13 cells; assay: cell-based or functional assay

T3 sequence (P20138 18-364 H45E): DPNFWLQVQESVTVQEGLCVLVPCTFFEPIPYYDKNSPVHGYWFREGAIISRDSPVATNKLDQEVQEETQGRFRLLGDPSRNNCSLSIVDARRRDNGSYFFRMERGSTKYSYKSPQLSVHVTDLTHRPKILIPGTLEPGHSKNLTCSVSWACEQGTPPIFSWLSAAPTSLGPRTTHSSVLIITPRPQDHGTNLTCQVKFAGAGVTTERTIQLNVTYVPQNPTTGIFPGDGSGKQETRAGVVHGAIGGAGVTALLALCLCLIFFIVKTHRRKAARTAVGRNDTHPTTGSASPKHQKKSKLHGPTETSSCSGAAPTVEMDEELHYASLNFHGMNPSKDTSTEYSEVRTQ
Sequence of Mutant CD33-GFP JS23 (L23N) on 293FT cells (P20138 18-364 L23N): as the sequence (P20138 18-364 H45E) above, with L6N, E28H counted along it
Sequence of Mutant CD33-GFP M5 (AEAD), quadruple mutant, on 293FT cells (P20138 other isoform, or with tags, fused parts or gaps mutant): as the sequence (P20138 18-364 H45E) above, with W5A, N82A, R105D counted along it
T7 sequence (P20138 18-364 K52A): as the sequence (P20138 18-364 H45E) above, with E28H, K35A counted along it
T2 sequence (P20138 18-364 W22A): as the sequence (P20138 18-364 H45E) above, with W5A, E28H counted along it
Sequence of Biotinylated CD33 protein (P20138 18-259 limits assumed): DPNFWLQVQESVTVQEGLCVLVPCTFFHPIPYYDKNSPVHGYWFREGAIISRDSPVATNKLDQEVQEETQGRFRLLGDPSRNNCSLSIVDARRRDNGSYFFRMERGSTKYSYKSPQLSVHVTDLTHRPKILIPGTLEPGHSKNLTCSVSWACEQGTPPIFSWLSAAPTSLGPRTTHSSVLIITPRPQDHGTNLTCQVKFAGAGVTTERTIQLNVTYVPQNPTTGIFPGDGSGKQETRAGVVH
T6 sequence (P20138 18-364 F43N): as the sequence (P20138 18-364 H45E) above, with F26N, E28H counted along it
Sequence of Mutant CD33-GFP M11 (L78T) on 293FT cells (P20138 18-364 L78T): as the sequence (P20138 18-364 H45E) above, with E28H, L61T counted along it
Sequence of Mutant CD33-GFP M15 (Q171A) on 293FT cells (P20138 18-364 Q171A): as the sequence (P20138 18-364 H45E) above, with E28H, Q154A counted along it
Sequence of Mutant CD33-GFP M9 (Y49, 50A) on 293FT cells (P20138 other isoform, or with tags, fused parts or gaps mutant): as the sequence (P20138 18-364 H45E) above, with E28H, Y32A, Y33A counted along it
Sequence of Mutant CD33-GFP M14 (E170R) on 293FT cells (P20138 18-364 E170R): as the sequence (P20138 18-364 H45E) above, with E28H, E153R counted along it
Sequence of Mutant CD33-GFP JS25 (V25M) on 293FT cells (P20138 18-364 V25M): as the sequence (P20138 18-364 H45E) above, with V8M, E28H counted along it
Sequence of Mutant CD33-GFP M17 (F21Y) on 293FT cells (P20138 18-364 F21Y): as the sequence (P20138 18-364 H45E) above, with F4Y, E28H counted along it
Sequence of Mutant CD33-GFP JS28 (S28L) on 293FT cells (P20138 18-364 S28L): as the sequence (P20138 18-364 H45E) above, with S11L, E28H counted along it
Sequence of Mutant CD33-GFP M12 (G88S) on 293FT cells (P20138 18-364 G88S): as the sequence (P20138 18-364 H45E) above, with E28H, G71S counted along it
Sequence of Mutant CD33-GFP M10 (Y127A) on 293FT cells (P20138 18-364 Y127A): as the sequence (P20138 18-364 H45E) above, with E28H, Y110A counted along it
Sequence of Mutant CD33-GFP JS24 (Q24E) on 293FT cells (P20138 18-364 Q24E): as the sequence (P20138 18-364 H45E) above, with Q7E, E28H counted along it
T5 sequence (P20138 18-364 R98D): as the sequence (P20138 18-364 H45E) above, with E28H, R81D counted along it
Sequence of Mutant CD33-GFP M13 (R91E) on 293FT cells (P20138 18-364 R91E): as the sequence (P20138 18-364 H45E) above, with E28H, R74E counted along it
Sequence of Mutant CD33-GFP N20D on 293FT cells (P20138 18-364 N20D): as the sequence (P20138 18-364 H45E) above, with N3D, E28H counted along it
Sequence of Mutant CD33-GFP M4 (R122D) on 293FT cells (P20138 18-364 R122D): as the sequence (P20138 18-364 H45E) above, with E28H, R105D counted along it
T4 sequence (P20138 18-364 N99A): as the sequence (P20138 18-364 H45E) above, with E28H, N82A counted along it
T1 sequence (P20138 18-364): as the sequence (P20138 18-364 H45E) above, with E28H counted along it
Sequence of CD33-GFP fusion protein, wild type (WT), on 293FT cells (P20138 18-364): as the sequence (P20138 18-364 H45E) above, with E28H counted along it

Binder | Octet signal [1] | Octet signal [2] | binding result [3] | Octet signal [4] | Octet signal [5] | FACS binding data [6] | Octet signal [7] | FACS binding data [8] | FACS binding data [9] | FACS binding data [10] | FACS binding data [11] | FACS binding data [12] | FACS binding data [13] | FACS binding data [14] | FACS binding data [15] | FACS binding data [16] | FACS binding data [17] | FACS binding data [18] | FACS binding data [19] | FACS binding data [20] | also measured
B1 | 0.457 | 0.2 | binds | 0.139 | 0.579 | 98.6 | -0.124 | 98.4 | 91.5 | 98.9 | 99.1 | 98.1 | 98.9 | 98.7 | 72.4 | 99.5 | 97.8 | 98.7 | 99.6 | 98.7 | FACS binding data [21]: 98.8; FACS binding data [22]: 0.15; FACS binding data [23]: 99.4; FACS binding data [24]: 98.5; FACS binding data [25]: 34.6; FACS binding data [26]: 99.1; FACS binding data [27]: 99.1; FACS binding data [28]: 99.1; Octet signal [29]: -0.0931; Octet signal [30]: 0.376; Octet signal [31]: 0.183; Octet signal [32]: -0.094; FACS binding data [33]: 74.8; FACS binding data [34]: 98.3; FACS binding data [35]: 8.64; Octet signal [36]: 0.0276
B2 | 0.733 | 0.37 | binds | 0.154 | 0.648 | 98.6 | 0.163 | 80.1 | 97.3 | 3.43 | 99 | 83.7 | 98.7 | 98.8 | 65.9 | 99.6 | 98.6 | 97.8 | 99.6 | 98.8 | FACS binding data [21]: 99.1; FACS binding data [22]: 0.07; FACS binding data [23]: 99.5; FACS binding data [24]: 98.5; FACS binding data [25]: 0.23; FACS binding data [26]: 70.2; FACS binding data [27]: 98.3; FACS binding data [28]: 99.4; Octet signal [30]: 0.356; Octet signal [31]: 0.444; Octet signal [32]: 0.086; Octet signal [37]: 0.266; FACS binding data [33]: 97.2; FACS binding data [34]: 98.6; FACS binding data [35]: 95.4; Octet signal [36]: 0.239
B3 | 0.538 | 0.257 | binds | 0.183 | 0.743 | 99.2 | 0.0225 | 99.5 | 97.7 | 99.5 | 99.1 | 96.1 | 99.3 | 99.2 | 77.8 | 99.7 | 95.9 | 99.2 | 99.7 | 99.2 | FACS binding data [21]: 99.3; FACS binding data [22]: 1.2; FACS binding data [23]: 99.8; FACS binding data [24]: 99; FACS binding data [25]: 1.25; FACS binding data [26]: 99.3; FACS binding data [27]: 99.1; FACS binding data [28]: 99.4; Octet signal [29]: 0.0441; Octet signal [30]: 0.53; Octet signal [31]: 0.259; Octet signal [32]: 0.304; Octet signal [37]: 0.191; FACS binding data [33]: 99.1; FACS binding data [34]: 99.2; FACS binding data [35]: 96.8
B4 | – | – | – | – | – | – | – | – | – | – | – | – | – | – | – | – | – | – | – | – | Ratio [38]: 1.98; Testing FP2 Expression (CD33+) [38]: 17.6 % of constitutive-fluorescence-positive cells
B5 | – | – | – | – | – | – | – | – | – | – | – | – | – | – | – | – | – | – | – | – | Ratio [38]: 8.5; Testing FP2 Expression (CD33+) [38]: 28.2 % of constitutive-fluorescence-positive cells
